This note sets out measurements from patent US5763240.

The data set deals with RecA (UniProt P0A7G6). Conditions: FITC-avidin confocal microscopy, permeabilized HEp-2 nuclei in agarose, 37 C; no signal without recA or with BSA.
Chain of RecA (P0A7G6 2-353): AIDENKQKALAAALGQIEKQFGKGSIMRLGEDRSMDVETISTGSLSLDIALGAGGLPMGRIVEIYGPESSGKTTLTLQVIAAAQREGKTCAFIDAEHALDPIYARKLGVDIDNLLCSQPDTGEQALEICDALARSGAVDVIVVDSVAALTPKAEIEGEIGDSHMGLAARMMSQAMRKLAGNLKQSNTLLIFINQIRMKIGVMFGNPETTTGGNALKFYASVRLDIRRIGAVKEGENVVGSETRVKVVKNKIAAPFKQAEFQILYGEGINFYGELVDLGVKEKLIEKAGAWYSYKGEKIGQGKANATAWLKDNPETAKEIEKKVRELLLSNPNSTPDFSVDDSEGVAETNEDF

In the case of “human chromosome 1 alpha-satellite targeting polynucleotides (nick-translated pUC 1.77, denatured)”, the binding (% nuclei with signal) is more than 25.
